Here are results for two molecules from PMC4522599.

Experiment [1] deals with In trans activated C25A-cathepsin S (human). As to the kind of experiment: surface acoustic wave biosensor (sam5BLUE); C25A-cathepsin S coupled by EDC/NHS to a short-chain COOH sensor chip; untreated Bet v 1 injected at increasing concentrations (5 or 10 to 100 μM); 20 mM imidazole pH 6.7, 50 mM NaCl; apparent KD from kobs by linear regression.
For experiment [2] the target is unchanged. As to the kind of experiment: surface acoustic wave biosensor (sam5BLUE); C25A-cathepsin S immobilized; heat-destabilized Bet v 1 (10 min at 60 °C, spin-filtered) injected, 1a at 10 to 100 μM, 1d at 2.5 to 40 μM; pH 6.7.

B1: Bet v 1a (Bet v 1.0101), major birch pollen allergen (natural protein)
chain: GVFNYETETTSVIPAARLFKAFILDGDNLFPKVAPQAISSVENIEGNGGPGTIKKISFPEGFPFKYVKDRVDEVDHTNFKYNYSVIEGGPIGDTLEKISNEIKIVATPDGGSILKISNKYHTKGDHEVKAEQVKASKEMGETLLRAVESYLLAHSDAYN
On to B1, for which the Kd in experiment [1] stood at 21.5 µM.

B2: Bet v 1d (Bet v 1.0401), hypoallergenic isoform of the major birch pollen allergen (natural protein)
chain: MGVFNYEIETTSVIPAARLFKAFILDGDNLVPKVAPQAISSVENIEGNGGPGTIKKINFPEGFPFKYVKDRVDEVDHTNFKYNYSVIEGGPVGDTLEKISNEIKIVATPDGGCVLKISNKYHTKGNHEVKAEQVKASKEMGETLLRAVESYLLAHSDAYN
With B2, the Kd in experiment [1] is 5.4 µM. The same molecule returned a fold reduction in affinity against untreated Bet v 1d in experiment [2] of 5 fold.
